Experimental findings from patent US20060008801A1 (EFFECTOR CELL INSTITUTE, published 2006) are described below.

The target of the assay is T1, myc-p53 (isotope-labeled myc-fused recombinant p53, made in vitro from pAS2-1-p53) (UniProt P02340 72-390, isotope-labeled).
T1 construct: Control of the coimmunoprecipitation
Kind of assay: coimmunoprecipitation of isotope-labeled recombinant proteins, SDS-PAGE. An excerpt:
In the second test, coding sequences of pAS2-1-CCR2b and pAS2-1-p53 were amplified by PCR using a T7 promoter, a 5′ primer encoding myc epitope: 5′[…] 3′ (SEQ ID NO:44) and a 3′ primer originating in p AS2-1: 5′[…]3′ (SEQ ID NO:45) to express an epitope-tagged protein. Similarly, pACT2-FROUNT was amplified by PCR using a T7 promoter, a 5′ primer encoding HA epitope: 5′[…]3′ (SEQ ID NO:46) and a 3′ primer originating in p ACT2: 3′[…]5′ (SEQ ID NO:47). Then, isotope-labeled recombinant proteins were produced in accordance with user's manual of […] Co-IP Kit (CLONTECH Laboratories, Inc.). By the coimmunoprecipitation method using these recombinant proteins, the specific binding ability between CCR2 and FROUNT was confirmed again (FIG. 2). […] Namely, coprecipitation occurred by using the HA- or Myc-specific antibody in the coexistence of myc-CCR2 and HA-FNT, the coprecipitation disappeared by adding an antigen peptide and no coprecipitation occurred in the case of myc-p53, thereby indicating specific binding ability.

T1 sequence (P02340 72-390): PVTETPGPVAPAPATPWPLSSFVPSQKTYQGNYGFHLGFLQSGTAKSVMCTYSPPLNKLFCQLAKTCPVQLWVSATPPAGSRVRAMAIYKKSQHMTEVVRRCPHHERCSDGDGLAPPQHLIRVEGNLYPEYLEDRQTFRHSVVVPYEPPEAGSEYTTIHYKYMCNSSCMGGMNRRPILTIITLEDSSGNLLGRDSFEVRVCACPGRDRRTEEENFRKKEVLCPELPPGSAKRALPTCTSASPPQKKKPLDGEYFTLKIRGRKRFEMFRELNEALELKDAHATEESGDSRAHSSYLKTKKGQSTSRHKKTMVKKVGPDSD

B1: HA-FNT (isotope-labeled HA-fused recombinant FROUNT protein, clone 19 part, made in vitro from pACT2-FROUNT) (other)
chain: LVSDRFLRDYCERGCFSDLDLIDNLGPAMMLSDRLTFLGKYREFHRMYGEKRFADAASLLLSLMTSRIAPRSFWMTLLTDALPLLEQKQVIFSAEQTYELMRCLEDLTSRRPVHGESDTEQLQDDDIETTKVEMLRLSLARNLARAIIREGSLEGS
modifications: isotope-labeled
notes: Co-IP Kit by PCR from pACT2-FROUNT; also called HA-tagged recombinant FROUNT protein; not shown: vector-encoded residues m
B1: the binding result is “no binding”.
